Article PMC11417369, “DNA sequence and chromatin differentiate sequence-specific transcription factor binding in the human malaria parasite Plasmodium falciparum”

Experiments:
AP2-LT D1 = biological target: T1, AP2-LT D1 (Plasmodium falciparum, UniProt Q8IAM1 2520-2577); test: gcPBM; about 25 ug protein; PBS, 1% milk, 0.2 mg/ml BSA, salmon testes DNA, 0.03% Triton X-100; conditions: tags: N-terminal GST (pGEX-4T-1), kept; label: surface-attached array probe
T1 sequence: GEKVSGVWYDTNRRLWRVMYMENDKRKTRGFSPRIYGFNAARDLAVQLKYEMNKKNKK

PF3D7_0420300 D1 = biological target: T2, PF3D7_0420300 D1 (Plasmodium falciparum, UniProt Q8I1N6 1956-2015); test: as above; conditions: tags: N-terminal GST (pGEX-4T-1), kept; label: surface-attached array probe
T2 sequence: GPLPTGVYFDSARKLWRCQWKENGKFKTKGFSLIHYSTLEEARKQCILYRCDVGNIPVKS

Binder | binding signal (AP2-LT D1) | binding signal (PF3D7_0420300 D1)
CACACA_negctrl_site196 (dsDNA) DNA 1: TTTTTAAATATATAATAGAATTGATTGTATTATATA DNA 2: TATATAATACAATCAATTCTATTATATATTTAAAAA | 8.6 ln median PBM intensity, better of two orientations | 8.88 ln median PBM intensity, better of two orientations
CACACA_site8688 (dsDNA) DNA 1: AAAACACGCGGACACACACACACACCCACCCATATA DNA 2: TATATGGGTGGGTGTGTGTGTGTGTCCGCGTGTTTT | 10.7 ln median PBM intensity, better of two orientations | 10.6 ln median PBM intensity, better of two orientations
CACACA_negctrl_site1047 (dsDNA) DNA 1: TTCACATGAAGAATTAAAATAAAACTAGGAAATTAA DNA 2: TTAATTTCCTAGTTTTATTTTAATTCTTCATGTGAA | 8.81 ln median PBM intensity, better of two orientations | 9.06 ln median PBM intensity, better of two orientations
CACACA_negctrl_site189 (dsDNA) DNA 1: AAGTTTATTATATATAAATTATTATATATATATATA DNA 2: TATATATATATATAATAATTTATATATAATAAACTT | 8.75 ln median PBM intensity, better of two orientations | 9.02 ln median PBM intensity, better of two orientations
CACACA_site2302 (dsDNA) DNA 1: GACATATTCCCCCCCACACACACACCCACATACATA DNA 2: TATGTATGTGGGTGTGTGTGTGGGGGGGAATATGTC | 10.9 ln median PBM intensity, better of two orientations | 10.9 ln median PBM intensity, better of two orientations
CACACA_negctrl_site1225 (dsDNA) DNA 1: ATTTTTTTTTTTTTTTTTTATATGCTCTCCATGAGA DNA 2: TCTCATGGAGAGCATATAAAAAAAAAAAAAAAAAAT | 8.79 ln median PBM intensity, better of two orientations | 8.86 ln median PBM intensity, better of two orientations
CACACA_negctrl_site1460 (dsDNA) DNA 1: TATTTTACATAAAAGAAAAAAAAAAAAAAAAAAAAA DNA 2: TTTTTTTTTTTTTTTTTTTTTCTTTTATGTAAAATA | 8.54 ln median PBM intensity, better of two orientations | 8.27 ln median PBM intensity, better of two orientations
CACACA_negctrl_site699 (dsDNA) DNA 1: TTTTATTTCAATCCACAAGGGATAAAATAAAGTTTT DNA 2: AAAACTTTATTTTATCCCTTGTGGATTGAAATAAAA | 8.46 ln median PBM intensity, better of two orientations | 8.71 ln median PBM intensity, better of two orientations
CACACA_negctrl_site1546 (dsDNA) DNA 1: TCATATATTCAAAAATTTAAAGTTAATAAAACTTGA DNA 2: TCAAGTTTTATTAACTTTAAATTTTTGAATATATGA | 8.35 ln median PBM intensity, better of two orientations | 8.61 ln median PBM intensity, better of two orientations
CACACA_negctrl_site1631 (dsDNA) DNA 1: TTTTAATTAAATACAAAAAAAAAAAAAAAAAAAAAA DNA 2: TTTTTTTTTTTTTTTTTTTTTTGTATTTAATTAAAA | 8.41 ln median PBM intensity, better of two orientations | 8.08 ln median PBM intensity, better of two orientations
CACACA_negctrl_site917 (dsDNA) DNA 1: ATTTCTATAAAAATAATCTACATTTTTTTTTTTTTT DNA 2: AAAAAAAAAAAAAATGTAGATTATTTTTATAGAAAT | 8.54 ln median PBM intensity, better of two orientations | 8.83 ln median PBM intensity, better of two orientations
CACACA_negctrl_site1067 (dsDNA) DNA 1: ATTATTTTATGAGACATAAAAAAAAAAAAAAAAAAA DNA 2: TTTTTTTTTTTTTTTTTTTATGTCTCATAAAATAAT | 8.39 ln median PBM intensity, better of two orientations | 8.39 ln median PBM intensity, better of two orientations
CACACA_negctrl_site1662 (dsDNA) DNA 1: TTATTCAGAAAAAAAAAAAAAAAAAAAAAAAAAAAA DNA 2: TTTTTTTTTTTTTTTTTTTTTTTTTTTTCTGAATAA | 8.18 ln median PBM intensity, better of two orientations | 8.5 ln median PBM intensity, better of two orientations
CACACA_negctrl_site12 (dsDNA) DNA 1: TTCTTCTAATCCTTTTATCTCATTAAAAAAATATAA DNA 2: TTATATTTTTTTAATGAGATAAAAGGATTAGAAGAA | 8.51 ln median PBM intensity, better of two orientations | 8.97 ln median PBM intensity, better of two orientations
CACACA_negctrl_site593 (dsDNA) DNA 1: TAATTTTTGTAAACAGTCATGGATTCAAAAAAAAAA DNA 2: TTTTTTTTTTGAATCCATGACTGTTTACAAAAATTA | 8.58 ln median PBM intensity, better of two orientations | 8.81 ln median PBM intensity, better of two orientations
CACACA_site367 (dsDNA) DNA 1: CACCCACCCAGACACACACACACACCCCCACCCATA DNA 2: TATGGGTGGGGGTGTGTGTGTGTGTCTGGGTGGGTG | 11 ln median PBM intensity, better of two orientations | 10.8 ln median PBM intensity, better of two orientations
CACACA_site7149 (dsDNA) DNA 1: CCCCCCCACGAACACACACACATACATACCACATAT DNA 2: ATATGTGGTATGTATGTGTGTGTGTTCGTGGGGGGG | 10.7 ln median PBM intensity, better of two orientations | 10.7 ln median PBM intensity, better of two orientations
CACACA_site5303 (dsDNA) DNA 1: CCCCCCCACGGACACACACACATACATACCACATAT DNA 2: ATATGTGGTATGTATGTGTGTGTGTCCGTGGGGGGG | 11.2 ln median PBM intensity, better of two orientations | 11 ln median PBM intensity, better of two orientations
CACACA_negctrl_site1242 (dsDNA) DNA 1: TATTATTGTCTTTCAAAAAAAAAAAAAAAAAAAAAA DNA 2: TTTTTTTTTTTTTTTTTTTTTTGAAAGACAATAATA | 8.23 ln median PBM intensity, better of two orientations | 8.46 ln median PBM intensity, better of two orientations
CACACA_negctrl_site1507 (dsDNA) DNA 1: TCTTTAAATCGAGTGTTAAATAATATAATATAAAAA DNA 2: TTTTTATATTATATTATTTAACACTCGATTTAAAGA | 8.73 ln median PBM intensity, better of two orientations | 9 ln median PBM intensity, better of two orientations
CACACA_negctrl_site1463 (dsDNA) DNA 1: TGTTTCTGCTCTGGACATTTTTAAAAAAGGGAAAGC DNA 2: GCTTTCCCTTTTTTAAAAATGTCCAGAGCAGAAACA | 8.66 ln median PBM intensity, better of two orientations | 8.94 ln median PBM intensity, better of two orientations
CACACA_negctrl_site1450 (dsDNA) DNA 1: ATATATTTTTAAAAAAATTAAGAATTTTACATCTCC DNA 2: GGAGATGTAAAATTCTTAATTTTTTTAAAAATATAT | 8.56 ln median PBM intensity, better of two orientations | 8.78 ln median PBM intensity, better of two orientations
CACACA_negctrl_site149 (dsDNA) DNA 1: TCTTATTCAAACGTAAAACGAAGAAGAAAAAAAAAA DNA 2: TTTTTTTTTTCTTCTTCGTTTTACGTTTGAATAAGA | 8.7 ln median PBM intensity, better of two orientations | 8.92 ln median PBM intensity, better of two orientations
CACACA_negctrl_site1587 (dsDNA) DNA 1: TTATAATATAAAAATAAATAAATAAATAAATAAATA DNA 2: TATTTATTTATTTATTTATTTATTTTTATATTATAA | 8.74 ln median PBM intensity, better of two orientations | 9.04 ln median PBM intensity, better of two orientations
CACACA_negctrl_site737 (dsDNA) DNA 1: TTTTTAATTCAAAAAATAATATATTATATTTCAAAT DNA 2: ATTTGAAATATAATATATTATTTTTTGAATTAAAAA | 8.36 ln median PBM intensity, better of two orientations | 8.79 ln median PBM intensity, better of two orientations
CACACA_site8115 (dsDNA) DNA 1: AGAAAATACACGCATACACACACACCCACCCACATA DNA 2: TATGTGGGTGGGTGTGTGTGTATGCGTGTATTTTCT | 10.7 ln median PBM intensity, better of two orientations | 10.6 ln median PBM intensity, better of two orientations
CACACA_negctrl_site676 (dsDNA) DNA 1: TATTTATTGTGATACTTATATTACTTAATGATTAAA DNA 2: TTTAATCATTAAGTAATATAAGTATCACAATAAATA | 8.81 ln median PBM intensity, better of two orientations | 9.03 ln median PBM intensity, better of two orientations
CACACA_site2303 (dsDNA) DNA 1: CATATTCCCCCCCACACACACACACCCATACATACC DNA 2: GGTATGTATGGGTGTGTGTGTGTGGGGGGGAATATG | 10.8 ln median PBM intensity, better of two orientations | 11 ln median PBM intensity, better of two orientations
CACACA_site3850 (dsDNA) DNA 1: TAAAATAAAACAAACACACACACACCCCCACAAAAA DNA 2: TTTTTGTGGGGGTGTGTGTGTGTTTGTTTTATTTTA | 10.7 ln median PBM intensity, better of two orientations | 10.7 ln median PBM intensity, better of two orientations
